Reference: patent US20030114404

The sequences below were run on T1, VEGF165 (Homo sapiens), P15692-4 (assay: filter). Conditions: 2'-F pyrimidines; 37 C.
T1 sequence: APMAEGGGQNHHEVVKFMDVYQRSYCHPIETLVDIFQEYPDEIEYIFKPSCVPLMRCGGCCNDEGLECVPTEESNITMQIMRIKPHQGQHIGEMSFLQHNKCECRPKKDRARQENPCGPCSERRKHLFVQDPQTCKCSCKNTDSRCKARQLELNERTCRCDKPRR
Work on “GGGAGGACGAUGCGGYGAACCGAUGGAAUUUUUGGACGCUCGCCUCAGACGACUCGCCCGA [VP30.2]” yielded a Kd of 0.01 nM. In the case of “GGGAGGACGAUGCGGUAGGAAGAAUUGGAAGCGCAUUUUCCUCGYCAGACGACUCGCCCGA [VP30.22]”, the Kd is reported as 0.02 nM. For “GGGAGGACGAUGCGGCGGYACUUUGGAAGAAUUGAAUUUCCCGCUCAGACGACUCGCCCGA [VP30.26]”, the Kd was 0.01 nM. With “GGGAGGACGAUGCGGAGAAUCAGUGAAUGCUUAUAAAUCUCGYGUCAGACGACUCGCCCGA [VT30.3]” the Kd was 0.005 nM. “GGGAGGACGAUGCGGAYCAACCGAUUGACGUUAUGGGACGCUGGUCAGACGACUCGCCCGA [VP30.5]” gave a Kd of 0.008 nM.

These sequences were tested on T2, VEGF, P15692-4 (assay: cell_activity). Conditions: NX278 (dialkylglycerol, 2'-NH2, 2'-OMe, PS) embedded in DSPC:cholesterol liposome; KSY-1 Kaposi's sarcoma cell proliferation; HUVEC IC50 about 300 nM (p159).
T2 sequence: T1 sequence
Work on “TTTTACCCUGAUGGUAGACGCCGGGGUGTTTTT [NX278-Liposome]” yielded an IC50 of 100 nM.
